The record followed here is paper PMC7982548 (The Journal of Biological Chemistry, 2005).

Where two headings read alike, the source gives them in different places.

One may read the Kd as the constant that tells how readily two partners part at equilibrium. Low readings indicate a tighter complex, high ones a looser complex.

Data set [1] concerns the molecule itself. The data set is described as follows: SEC. (In general: Size exclusion chromatography separates by hydrodynamic size, large species first.)
Data set [2] deals with the molecule itself. The data set is described as follows: ITC. A general note: In ITC the heat of successive injections is recorded.
Data set [3] concerns the molecule itself. The data set is described as follows: ITC. The source holds these as a separate data set.
Data set [4] has as its target 6-amino acid model peptide substrate ([…]). The data set is described as follows: SPR.

B1: N-terminal deleted SARS 3CL^pro (residues 8-303) (domain or fragment)
chain: FPSGKVEGCMVQVTCGTTTLNGLWLDDTVYCPRHVICTAEDMLNPNYEDLLIRKSNHSFLVQAGNVQLRVIGHSMQNCLLRLKVDTSNPKTPKYKFVRIQPGQTFSVLACYNGSPSGVYQCAMRPNHTIKGSFLNGSCGSVGFNIDYDCVSFCYMHHMELPTGVHAGTDLEGKFYGPFVDRQTAQAAGTDTTITLNVLAWLYAAVINGDRWFLNRFTTTLNDFNLVAMKYNYEPLTQDHVDILGPLSAQTGIAVLDMCAALKELLQNGMNGRTILGSTILEDEFTPFDVVRQCSGVTFQ
With B1, in data set [1], the “dimer/monomer ratio at 1 mg/ml” value came out at 0.65, the “dimer/monomer ratio at 2 mg/ml” value is 0.66 and the “dimer/monomer ratio at 7 mg/ml” value was 0.8. Further, in data set [2], the dissociation constant (Kd) was 261 ± 15 µM. In data set [3], this molecule gave a Kd of 262 ± 15 µM and a dH of -28.8 ± 1.05 kJ/mol.

B2: full-length SARS coronavirus 3C-like proteinase (enzyme)
chain: SGFRKMAFPSGKVEGCMVQVTCGTTTLNGLWLDDTVYCPRHVICTAEDMLNPNYEDLLIRKSNHSFLVQAGNVQLRVIGHSMQNCLLRLKVDTSNPKTPKYKFVRIQPGQTFSVLACYNGSPSGVYQCAMRPNHTIKGSFLNGSCGSVGFNIDYDCVSFCYMHHMELPTGVHAGTDLEGKFYGPFVDRQTAQAAGTDTTITLNVLAWLYAAVINGDRWFLNRFTTTLNDFNLVAMKYNYEPLTQDHVDILGPLSAQTGIAVLDMCAALKELLQNGMNGRTILGSTILEDEFTPFDVVRQCSGVTFQ
Molecule B2 registered a Kd in data set [4] of approximately 152 µM. In data set [3], this molecule yielded a Kd of 227 ± 34 µM and a dH of -34.7 ± 0.431 kJ/mol.
